Where two headings read alike, the source gives them in different places.
Legend:
Test in all cases: cryo-EM structure
[1] = molecular target: Angavokeley (AngV) fusion (F) protein ectodomain (Angavokeley virus (AngV))
[2] = molecular target: Angavokeley (AngV) fusion (F) protein ectodomain (Angavokeley virus (AngV)); remark: listed apart in the source
[3] = molecular target: Hendravirus alpha2 -F protein (Hendra virus) (UniProt O89342)

Substance	stoichiometry N [1]	stoichiometry N [2]	stoichiometry N [3]
Angavokeley (AngV) fusion (F) protein ectodomain (domain or fragment)	3	6	
Hendravirus alpha2 -F protein (from UniProt O89342 27-494) (domain or fragment)			6

From doi:10.64898/2025.12.08.693081
